From patent US12006368 (SURROZEN OPERATING, dated 2024)
Numbering of substitutions follows the chain as printed. Values belong to the binder of their own block, whether it stands above or below them.

Columns and labels:
[1] = target: hFzd1 CRD-Xtal (hFzd1_Q9UP38_101-230) (human, UniProt Q9UP38 101-230); experiment: size-exclusion chromatography of the Fzd CRD_Xtal:Fab mixture
Protocol: (§1) Purfied Fzd CRD_Xtal and Fab binders were mixed at 1.1:1 molar ratio (little excess of the smaller molecular weight protein), and incubated with carboxy-peptidase A and B at a w/w ratio of 100:1 for over-night at 4° C. Complex formation was confirmed by observation of a single-major peak on SuperdexS200 Increase (10/300 GL) column pre-equilibrated in HBS. Fractions containing complexes were further checked by SDS-PAGE, and concentrated to a range from 10 to 55 mg/mL for crystallization screens. Initial crystallization screen, using commercially available MCSG1, MCSG2, MCSG3, MCSG4, PACT (Molecular Dimensions), PEGs I, and PEGs II (Qiagen) screen, and optimization by grid-screens or microseed matrix screen [MMS; Microseed matrix screening for optimization in protein crystallization: what have we learned? D'Arcy, A., Bergfors, T., Cowan-Jacob S. W., and Marshd, M. Acta Cryst. F70, 1117-1126 (2014)]. were performed using Mosquito (TTP LabTech) liquid handler, and equilibrated at 18° C. inside an EchoTherm incubator (Torrey Pines Scientific). 96-well plate crystal screening experiments were periodically monitored manually via a DiscoveryV20 stereomicroscope (Zeiss), and crystals were frozen for data collection by plunging into liquid nitrogen in the presence of various cryo-protectants (typically 15 to 30% v/v of glycerol or ethyleneglycol). X-ray diffraction datasets were collected at the Berkeley Center for Structural Biology at the Advanced Light Source (ALS), Berkeley CA, and processed with XDS [Kabsch, W. XDS. Acta Cryst. D66, 125-132 (2010)], and xdsme [Legrand, P. XDSME: XDS Made Easier (2017) GitHub repository, https://github-.com/legrandp/xdsme DOI 10.5281/zenodo.837885]. programs. Structure of Fzd:Fab complexes were determined by molecular replacement method using Phaser with constant and variable domains of related Fabs are template [Phaser crystallographic software. A. J. McCoy, R. W. Grosse-Kunstleve, P. D. Adams, M. D. Winn, L. C. Storoni, and R. J. Read. J Appl Crystallogr 40, 658-674 (2007)], followed by refinement and validation by MolProbity as implemented in Phenix [PHENIX: a comprehensive Python-based system for macromolecular structure solution.

[2] = target: T1, Fzd1 cysteine rich domain (CRD), C-terminally biotinylated (human, UniProt Q9UP38 101-230); experiment: summary in Table 3; method not given there
[3] = target: T2, Fzd7 cysteine rich domain (CRD), C-terminally biotinylated (human, UniProt O75084 36-165); experiment: summary in Table 3; method not given there
[4] = target: T3, hFzd3 CRD-Xtal (hFzd3_Q9NPG1_23-148) (human, UniProt Q9NPG1 23-148); experiment: size-exclusion chromatography of the Fzd CRD_Xtal:Fab mixture
T3 construct: complex incubated with carboxypeptidase A and B before crystallisation
T3 sequence: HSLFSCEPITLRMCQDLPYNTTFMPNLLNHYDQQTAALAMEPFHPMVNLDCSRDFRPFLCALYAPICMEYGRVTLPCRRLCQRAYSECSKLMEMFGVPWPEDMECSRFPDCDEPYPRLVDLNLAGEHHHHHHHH
Protocol: as §1

[5] = target: T4, Frizzled 3 (human, UniProt Q9NPG1 23-148, limits assumed); experiment: phage ELISA on immobilised antigen (initial binding)
T4 construct: Target antigen immobilised on plates in the phage ELISA; also called Fzd3; Fz3
T4 sequence (looked up): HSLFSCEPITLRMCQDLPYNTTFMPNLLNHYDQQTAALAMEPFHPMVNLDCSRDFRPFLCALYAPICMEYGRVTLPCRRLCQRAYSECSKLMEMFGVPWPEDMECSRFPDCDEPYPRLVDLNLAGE
Protocol: (§2) Detection of bound phage was determined […] by turnover of TMB substrate (Thermo Fisher Scientific, Waltham, MA) at […] by anti-M13-HRP antibody (GE Healthcare, Pittsburgh, PA). Clones were identified as binding to a Fzd receptor when the fold OD 450 nm over background was greater than a threshold level.

[6] = target: T1, Fzd1 cysteine rich domain (CRD), …; experiment: BLI; *=Kd <100 nM
Protocol: (§3) Binding kinetics of antibody fragments to a variety of Fzd cysteine rich domain (CRD) protein targets (Fzd1, Fzd2, Fzd3, Fzd4, Fzd5, Fzd6, Fzd7, Fzd8, Fzd9 and/or Fzd10 CRDs) was determined by bio-layer interferometry (BLI) using Octet Red 96 (PALL ForteBio, Fremont, CA) instruments at 30° C., 1000 rpm with streptavidin (SA) biosensors. C-terminal biotinylated Fzd CRD recombinant protein was diluted to 20 nM in the running buffer (PBS, 0.05% Tween-20, 0.5% BSA, pH 7.2) and captured to the SA biosensor until coupling length reached 0.2 nm. Following capture of the Fzd CRD, the SA biosensor with captured biotinylated-Fzd CRD was dipped into wells containing the relevant antibody fragment at […] (0, 1.37, 4.12, 12.4, 37, 111.1, 333.3, 1000 nM) in running buffer, plus a well with only running buffer as a reference channel. […] was determined by global fitting, 1:1 binding model according to manufacturer recommended settings.
(§4) Table 1B provides clone IDs, the sequence identifier number of the antibody heavy chain fragment and/or light chain fragment, if present, for illustrative clones. In certain embodiments, the Fzd binding domain is an Fab or was derived from an Fab, so the heavy chain of Table 1B includes VH and CH1 sequence, but not CH2 or CH3 sequences. In certain embodiments, the Fzd binding domain is a VHH or sdAb® or was derived from a VHH or sdAb, so Table 1B includes the VHH domain. […] The Kd values were determined by BLI as described above. Blank entries denote that the binding to the specific Fzd receptor has not yet been determined. The entry of "n.b." indicates no binding.

[7] = target: T2, Fzd7 cysteine rich domain (CRD), …; experiment: BLI; *=Kd <100 nM
Protocol: as §3, §4

[8] = target: T5, Fzd2 cysteine rich domain (CRD), C-terminally biotinylated (human, UniProt Q14332 24-155); experiment: BLI; **=Kd 100-2000 nM
Protocol: as §3, §4

[9] = target: T6, Fzd5 (UniProt Q13467 27-152, limits assumed); experiment: phage ELISA on immobilised antigen
T6 construct: immobilised target antigen of the phage ELISA and the Fzd named in specificity sentences; also called Frizzled 5; Fz5
T6 sequence (looked up): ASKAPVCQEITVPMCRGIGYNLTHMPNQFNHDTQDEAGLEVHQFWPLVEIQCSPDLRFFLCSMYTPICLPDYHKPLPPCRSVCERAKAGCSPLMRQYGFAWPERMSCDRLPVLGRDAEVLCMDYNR
Protocol: as §2

[10] = target: T7, hFzd5 CRD-Xtal (hFzd5_Q13467_27-152) (human, UniProt Q13467 27-152); experiment: size-exclusion chromatography of the Fzd CRD_Xtal:Fab mixture
T7 construct: complex incubated with carboxypeptidase A and B before crystallisation
T7 sequence: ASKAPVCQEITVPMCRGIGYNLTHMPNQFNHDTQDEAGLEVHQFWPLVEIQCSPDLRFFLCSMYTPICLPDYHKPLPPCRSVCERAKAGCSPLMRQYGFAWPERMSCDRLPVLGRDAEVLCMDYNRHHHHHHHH
Protocol: as §1

[11] = target: T8, Frizzled 6 (human, UniProt O60353 19-145, limits assumed); experiment: phage ELISA on immobilized antigen (initial binding)
T8 construct: the antigen of the phage ELISA is only called 'target antigen'; also called Fzd6; Fz6
T8 sequence (looked up): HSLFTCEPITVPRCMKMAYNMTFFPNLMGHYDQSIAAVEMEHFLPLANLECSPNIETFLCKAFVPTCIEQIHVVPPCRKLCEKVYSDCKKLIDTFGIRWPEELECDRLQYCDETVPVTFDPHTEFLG
Protocol: as §2

[12] = target: T5, Fzd2 cysteine rich domain (CRD), …; experiment: BLI; *=Kd <100 nM
Protocol: as §3, §4

[13] = target: T1, Fzd1 cysteine rich domain (CRD), …; experiment: BLI; *=Kd <=100 nM
Protocol: as §3
(§5) One antibody fragment, clone 001S-A04, was selected for alanine-scanning mutagenesis of CDRs, and the respective Fzd1 binding affinities of the various mutants were determined by Octet BLI as described in Example 1.

[14] = target: T1, Fzd1 cysteine rich domain (CRD), …; experiment: BLI
Protocol: as §3, §5

- binding result [1]: binds
B1: R2M9 (003S-E07) Fab (Fab, V domains shown)
VH: QVQLVQSGAEVKKPGSSVKVSCKASGYTFTNNFMHWVRQAPGQGLEWMGWINPNSGGTKYAQKFQGRVTITADESTSTAYMELSSLRSEDTAVYYCARSVGEVGATMLGIGVWYWFDPWGQGTLVTVSS
VL: not shown
notes: heavy chain with C-terminal hexa-histidine tag; carboxypeptidase A and B treated in the complex

- binding result [2]: binds
- binding result [3]: binds
B2: R2M9 (003S-E07) Fab (Fab, V domains shown)
VH: B1 VH
VL: not shown
notes: heavy chain entry ends in GSGSG-His6

- binding result [4]: binds
B3: 029S-E03 Fab (Fab, V domains shown)
VH: QVQLVQSGAEVKKPGASVKVSCKASGYTFTGYYMHWVRQAPGQGLEWMGWINPNSGNTGYAQKFQGRVTMTRDTSTSTVYMELSSLRSEDTAVYYCARSYYGVIDAFDIWGQGTMVTVSS
VL: DIQMTQSPSSLSASVGDRVTITCRASQSISSYLNWYQQKPGKAPKLLIYAASSLQTGVPSRFSGSGSGTDFTLTISSLQPEDFATYYCQQSFRLPLTFGQGTKVEIKR
notes: as for B1

- binding result [5]: binds
B4: 029S-E03 (Fab, V domains shown)
VH: B3 VH
VL: B3 VL

- Kd [6]: < 100 nM
- Kd [7]: < 100 nM
- Kd [8]: 100 to 2000 nM
B5: 001S-E02 (Fab, V domains shown)
VH: QVQLQESGPGLVKPSETLSLTCTVSGGSISGNNYYWGWIRQPPGKGLEWIGSIYFTGGTYYNPSLKSRVTISVDTSKNQFSLKLSSVTAADTAVYYCARVMLITDAFDIWGQGTMVTVSS
VL: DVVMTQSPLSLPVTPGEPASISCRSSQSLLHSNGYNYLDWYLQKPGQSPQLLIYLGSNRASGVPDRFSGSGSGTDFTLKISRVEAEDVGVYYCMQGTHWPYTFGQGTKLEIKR

- binding result [9]: binds
- binding result [10]: binds
B6: 004S-E05 Fab (Fab, V domains shown)
VH: EVQLVESGGGLVQPGGSLRLSCAASGFTFSTYEMNWVRQAPGKGLEWVSGVSWNGSRTHYVDSVKGRFTISRDNSKNTLYLQLNSLRAEDTAVYYCARGQSEKWWSGLYGMDVWGQGTTVTVSS
VL: DIQMTQSPSSLSASVGDRVTITCRASQGISSALAWYQQKPGKAPKLLIYAASALQSGVPSRFSGSGSGTDFTLTISSLQPEDFATYYCQQTYSTPRTFGPGTKVDIKR
notes: Fab chains as crystallised (heavy chain with hexa-histidine tag); also called 004S-E050

- binding result [11]: binds
B7: 004S-E09 (antibody, V domains shown)
VH: QVQLVQSGAEVKKPGASVKVSCKASGDTFSNYVISWVRQAPGQGLEWMGRISAYNGYKSYAQNFQGRVTMTRDTSTSTVYMELSSLRSEDTAVYYCARSSGYVGWFDPWGQGTLVTVSS
VL: not shown

- binding result [10]: binds
B8: 4A12 Fab (Fab, V domains shown)
VH: QVQLQQSGPELVKPGASVKLSCKASGYTFTNYDINWVKQRPGQGLEWIGWIYPRDGSTKYNEKFKGKATLTVDTSSSTAYMELHSLTSEDSAVYFCVRSAWGFAYWGQGTLVTVSA
VL: DIVMTQSHKFMSTSVGDRVSITCKASQDVGTAVAWYQQKPGQSPKLLIYWASTRHTGVPDRFTGSGSGTDFTLTINNVQSEDLADYFCQQYSTYPLTFGAGTKLELKR
notes: as for B1

- Kd [6]: < 100 nM
- Kd [12]: < 100 nM
- Kd [7]: < 100 nM
- KD [13]: ≤ 100 nM
B9: 001S-A04 (Fab, V domains shown)
VH: EVQLVQSGAEVKKPGASVKVSCKASGYTFTSYGISWVRQAPGQGLEWMGWISAYNGNTNYAQKLQGRVTMTTDTSTSTAYMELRSLRSDDTAVYYCASSKEKATYYYGMDVWGQGTTVTVSS
VL: QAVVLQEPSLSVSPGGTVTLTCGLSSGSVSTNYYPSWYQQTPGQAPRTLIYYTNTRSSDVPERFSGSIVGNKAALTITGAQPDDESVYFCLLYLGRGIWVFGGGTKLTVLG
notes: also called R2M3; WT

- binding result [14]: no binding (tested: 1000 nM)
B10: 001S-A04 mutant VHY8A (Fab, V domains shown)
VH: B9 VH with Y106A
VL: B9 VL
